Where two headings read alike, the source gives them in different places.
T1: human NPR1 full-length protein overexpressed on CHO-K1 cells (human, UniProt P16066 33-1061)
T1 construct: also called hNPR1-CHOK1; hNPR1 CHO-K1
T1 sequence: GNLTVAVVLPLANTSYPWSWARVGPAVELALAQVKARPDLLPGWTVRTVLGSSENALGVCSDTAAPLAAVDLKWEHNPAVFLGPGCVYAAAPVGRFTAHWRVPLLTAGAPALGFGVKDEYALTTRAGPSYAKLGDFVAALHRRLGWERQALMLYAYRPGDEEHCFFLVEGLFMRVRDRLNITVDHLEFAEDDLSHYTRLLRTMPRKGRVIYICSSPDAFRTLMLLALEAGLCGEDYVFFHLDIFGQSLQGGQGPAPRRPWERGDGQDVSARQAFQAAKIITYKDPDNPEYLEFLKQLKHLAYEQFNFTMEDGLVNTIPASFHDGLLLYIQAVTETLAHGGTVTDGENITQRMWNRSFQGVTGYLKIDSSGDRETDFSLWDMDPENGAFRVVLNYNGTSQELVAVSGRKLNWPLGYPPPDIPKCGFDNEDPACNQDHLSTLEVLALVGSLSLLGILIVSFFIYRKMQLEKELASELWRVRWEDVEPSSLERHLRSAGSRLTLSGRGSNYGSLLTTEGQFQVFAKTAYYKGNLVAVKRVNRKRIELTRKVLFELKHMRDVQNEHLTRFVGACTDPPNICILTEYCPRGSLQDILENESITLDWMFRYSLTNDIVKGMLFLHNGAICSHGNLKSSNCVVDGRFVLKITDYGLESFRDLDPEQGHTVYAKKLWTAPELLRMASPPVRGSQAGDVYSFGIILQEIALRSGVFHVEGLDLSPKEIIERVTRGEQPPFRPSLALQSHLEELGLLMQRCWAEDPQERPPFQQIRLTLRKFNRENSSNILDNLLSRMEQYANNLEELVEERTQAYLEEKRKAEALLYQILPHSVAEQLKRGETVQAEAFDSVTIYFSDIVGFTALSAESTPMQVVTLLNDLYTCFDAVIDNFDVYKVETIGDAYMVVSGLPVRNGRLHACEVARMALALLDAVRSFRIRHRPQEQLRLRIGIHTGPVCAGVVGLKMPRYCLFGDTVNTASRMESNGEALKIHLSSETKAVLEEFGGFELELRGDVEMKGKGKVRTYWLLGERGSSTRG

T2: hNPR2 (human, UniProt P20594 23-458, limits assumed)
T2 construct: Commercial protein; construct not described; also called hNPR2 antigen
T2 sequence (looked up): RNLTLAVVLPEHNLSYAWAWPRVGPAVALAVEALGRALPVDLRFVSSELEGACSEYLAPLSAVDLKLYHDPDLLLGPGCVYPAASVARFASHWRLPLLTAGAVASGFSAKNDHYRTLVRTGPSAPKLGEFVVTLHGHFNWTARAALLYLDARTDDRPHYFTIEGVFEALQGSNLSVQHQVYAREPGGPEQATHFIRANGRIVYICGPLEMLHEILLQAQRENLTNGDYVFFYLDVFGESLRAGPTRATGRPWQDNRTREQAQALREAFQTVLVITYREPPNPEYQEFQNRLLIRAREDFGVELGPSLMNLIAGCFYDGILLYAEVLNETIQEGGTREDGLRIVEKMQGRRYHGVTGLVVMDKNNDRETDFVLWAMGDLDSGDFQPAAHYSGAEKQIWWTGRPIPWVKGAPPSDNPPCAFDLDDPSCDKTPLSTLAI

B1: CHI-135 (antibody, human IgG1, kappa, V domains shown)
VH: DVKLVESGEGLVKPGGSLKLSCVASGFSISTYGMSWVRQTPEKRLEWVAYINSGGNYIYYADTVKGRFTISRDNARNTLYLQMSSLKSEDTAMYYCTRDRTTIVVHWYFDVWGTGTTVTVSS
VL: QIVLTQSPAIMSASPGEKVTMTCSASSSLNFMHWYQQKPGTSPKRWIYDTSKLASGVPARFSGSGSGTSYSLTISSMEAEDAATYYCHQRSSTFGGGTKLELKR
notes: Chimeric human IgG1/kappa; also called NPR1-CHAb-SFM-135; chimeric antibody of murine antibody 135
B2: CHI-127 (antibody, human IgG1, kappa, V domains shown)
VH: QAYLQQSGPELVKPGASVKISCKASGYSFTGYFMNWVMQSHGKSLEWIGRINPYNGDTFYNQKFKGKATLTVDKSSSTVHMELRSLASEDSAVYYCARRGYGNRGYWYFDVWGAGTTVTVSS
VL: NIVLTQSPASLAVSLGQRATISCRASESVDSYGNSFMHWYQQKPGQPPKVLIYLASTLESGVPARFSGSGSRTDFTLTIDPVEADDAATYYCQQNNEDPLTFGAGTKLELKR
notes: Chimeric human IgG1/kappa; also called NPR1-CHAb-SFM-127-1; chimeric antibody of murine antibody 127
B3: Hu128H3L1-6 (antibody, human IgG1, kappa, L234A L235A, V domains shown)
VH: EVQLVQSGAEVKKPGASVKVSCKASGYTFTSYWMHWVRQAPGQGLEWMGRIDPNSGVTKYNEKFKSRVTLTVDKPSSPAYMELSSLRSEDTAVYYCARSSYLGRYFDVWGQGTTVTVSS
VL: EIVLTQSPATLSLSPGERATLKCSATSSVSYMYWYQQKPGQAPRLLIYDTYNLGSRIPARFSGSGSGTDYTLTISRLEPEDFAVYYCQQWSSYPPTFGQGTKLEIKR
notes: Humanized, human IgG1 LALA/kappa
B4: Hu128H3L1 (antibody, human IgG1, kappa, L234A L235A, V domains shown)
VH: EVQLVQSGAEVKKPGASVKVSCKASGYTFTSYWMHWVRQAPGQGLEWMGRIDPNSGVTKYNEKFKSRVTLTVDKPSSPAYMELSSLRSEDTAVYYCARSSYLGRYFDVWGQGTTVTVSS
VL: EIVLTQSPATLSLSPGERATLSCSATSSVSYMYWYQQKPGQAPRLLIYDTYNLASRIPARFSGSGSGTDYTLTISRLEPEDFAVYYCQQWSSYPPTFGQGTKLEIKR
B5: Hu140H5L5-11 (antibody, human IgG1, kappa, L234A L235A, V domains shown)
VH: QVQLVQSGAEVKKPGASVKVSCKASGYTFTSYWMHWVRQAPGQGLEWMGRIDPNSGVTKYNEKFKSRVTLTVDKPSSPAYMELSSLRSEDTAVYYCARSGGLRRYFDVWGQGTTVTVSS
VL: EIVLTQSPATLSLSPGERAQLSCSASSSVSYMYWYQQKPGQAPRLLIYDTYNLASGVPDRFSGSGSGTSYTLTISRLEPEDFAVYYCQQWSSYPPTFGAGTKLEIKR
notes: as for B3
B6: Hu128H3L2 (antibody, human IgG1, kappa, L234A L235A, V domains shown)
VH: EVQLVQSGAEVKKPGASVKVSCKASGYTFTSYWMHWVRQAPGQGLEWMGRIDPNSGVTKYNEKFKSRVTLTVDKPSSPAYMELSSLRSEDTAVYYCARSSYLGRYFDVWGQGTTVTVSS
VL: EIVLTQSPATLSLSPGERATLSCSATSSVSYMYWYQQKPGSSPRLLIYDTYNLASRIPARFSGSGSGTDYTLTISRLEPEDFAVYYCQQWSSYPPTFGQGTKLEIKR
B7: Hu140H5L5 (antibody, human IgG1, kappa, L234A L235A, V domains shown)
VH: QVQLVQSGAEVKKPGASVKVSCKASGYTFTSYWMHWVRQAPGQGLEWMGRIDPNSGVTKYNEKFKSRVTLTVDKPSSPAYMELSSLRSEDTAVYYCARSGGLRRYFDVWGQGTTVTVSS
VL: EIVLTQSPATLSLSPGERATLSCSASSSVSYMYWYQQKPGQAPRLLIYDTYNLASGVPARFSGSGSGTSYTLTISRLEPEDFAVYYCQQWSSYPPTFGAGTKLEIKR
B8: Hu135H3L1 (antibody, human IgG1, kappa, L234A L235A, V domains shown)
VH: DVKLVESGEGLVKPGGSLRLSCAASGFSISTYGMSWVRQAPGKRLEWVAYINSGGNYIYYADSVKGRFTISRDNAKNSLYLQMNSLRAEDTAVYYCTRDRTTIVVHWYFDVWGQGTTVTVSS
VL: DIQLTQSPSSLSASVGDRVTITCSASSSLNFMHWYQQKPGKSPKRWIYDTSKLASGVPSRFSGSGSGTDYTLTISSLQPEDFATYYCHQRSSTFGGGTKVEIKR
notes: Humanized, human IgG1 LALA/kappa; also called Hul35H3L1
B9: Hu102H4L6 (antibody, human IgG1, kappa, L234A L235A, V domains shown)
VH: DVKLVESGEGLVKPGGSLRLSCAASGFTFSSYAMSWVRQAPGKRLEWVAYISRGGDYIYYADSVKGRFTISRDNAKNSLYLQMNSLRAEDSAVYYCTRDQTTVVVHWYFDVWGQGTTVTVSS
VL: DIQLTQSPSSLSASVGDRVTITCSASSSINYMHWYQQKPGKSPKRWIYDTSKLASGVPSRFSGSGSGTDYTLTISSLQPEDFATYYCHQRNSYTFGGGTKVEIKR
notes: Humanized, human IgG1 LALA/kappa; also called Hul02H4L6

How the values were obtained:
[1] = molecular target: T3, cynomolgus monkey NPR1 full-length protein overexpressed on CHO-K1 cells (cynomolgus monkey); assay: flow cytometry on cNPR1-expressing CHO-K1 cells, antibody pre-mixed with 10 nM ANP
T3 construct: whole, on cells; also called cNPR1-CHOK1; cNPR1 CHO-K1

[2] = molecular target: T3, cynomolgus monkey NPR1 full-length …; assay: flow cytometry on cNPR1-expressing CHO-K1 cells, without ANP
[3] = molecular target: T1, human NPR1 full-length protein …; assay: flow cytometry on hNPR1-expressing CHO-K1 cells, antibody pre-mixed with 10 nM ANP
[4] = molecular target: T1, human NPR1 full-length protein …; assay: flow cytometry on hNPR1-expressing CHO-K1 cells, without ANP
[5] = molecular target: T1, human NPR1 full-length protein …; assay: cell-based or functional assay
hNPR2 = molecular target: T2, hNPR2; assay: ELISA, plate coated with 4 µg/mL antigen
[6] = molecular target: T4, fusion protein of the human NPR1 protein extracellular domain and human-IgG1-Fc (human); assay: ELISA, plate coated with 4 µg/mL hNPR1 antigen
T4 construct: also called hNPR1-hFc; hNPR1
T4 sequence (chain, as listed by the source limits assumed): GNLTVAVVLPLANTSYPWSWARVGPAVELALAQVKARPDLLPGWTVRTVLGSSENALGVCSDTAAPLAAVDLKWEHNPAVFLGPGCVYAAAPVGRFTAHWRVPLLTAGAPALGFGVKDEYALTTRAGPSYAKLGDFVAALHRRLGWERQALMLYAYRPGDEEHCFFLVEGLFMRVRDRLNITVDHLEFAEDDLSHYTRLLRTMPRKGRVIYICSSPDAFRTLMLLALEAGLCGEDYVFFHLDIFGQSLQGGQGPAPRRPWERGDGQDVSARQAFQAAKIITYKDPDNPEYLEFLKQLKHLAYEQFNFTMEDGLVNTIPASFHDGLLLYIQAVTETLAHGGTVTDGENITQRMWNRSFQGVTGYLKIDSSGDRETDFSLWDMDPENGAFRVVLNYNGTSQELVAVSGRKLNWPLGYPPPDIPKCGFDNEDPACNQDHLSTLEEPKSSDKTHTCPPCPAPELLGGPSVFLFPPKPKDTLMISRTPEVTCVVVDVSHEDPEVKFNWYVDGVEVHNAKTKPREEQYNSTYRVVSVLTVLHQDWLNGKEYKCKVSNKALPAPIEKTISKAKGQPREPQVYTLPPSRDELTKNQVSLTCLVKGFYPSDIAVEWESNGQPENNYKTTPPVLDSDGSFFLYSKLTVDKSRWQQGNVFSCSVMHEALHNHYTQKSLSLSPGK

[7] = molecular target: T1, human NPR1 full-length protein …; assay: cell-based or functional assay; remark: listed apart in the source
[8] = molecular target: T1, human NPR1 full-length protein …; assay: cell-based or functional assay; remark: listed apart in the source
[9] = molecular target: T1, human NPR1 full-length protein …; assay: cell-based or functional assay; remark: listed apart in the source
[10] = molecular target: T1, human NPR1 full-length protein …; assay: cell-based or functional assay; remark: listed apart in the source
[11] = molecular target: T1, human NPR1 full-length protein …; assay: cell-based or functional assay; remark: listed apart in the source
[12] = molecular target: T1, human NPR1 full-length protein …; assay: cell-based or functional assay; remark: listed apart in the source

Binder | binding result (hNPR2) | EC50 [6] [nM] | Ratio (without ANP) of NPR1 antigens remaining on the cell surface after endocytosis to the initial number, 10 min, 20 µg/mL [7] [ratio] | Ratio (without ANP) of NPR1 antigens remaining on the cell surface after endocytosis to the initial number, 1 h, 20 µg/mL [7] [ratio] | Ratio (without ANP) of NPR1 antigens remaining on the cell surface after endocytosis to the initial number, 7 hrs, 20 µg/mL [7] [ratio] | Ratio (without ANP) of NPR1 antigens remaining on the cell surface after endocytosis to the initial number, 24 hrs, 20 µg/mL [7] [ratio] | further results
B1 |  |  |  |  |  |  | EC50 [1]: 1.63 nM; EC50 [2]: 3.59 nM; EC50 [3]: 2.49 nM; EC50 [4]: 4.39 nM
B2 |  |  |  |  |  |  | cGMP production: EC50 [5]: 42.7 nM; cGMP production: Emax [5]: 0.43; cGMP production: Emin [5]: 0.077; EC50 [1]: 1.28 nM; EC50 [2]: 1.19 nM; EC50 [3]: 1.74 nM; EC50 [4]: 1.73 nM
B3 | no binding (tested: 20 µg/mL (highest concentration)) | 1.84 | 1.3 | 0.91 | 0.96 | 0.82 | cGMP production: EC50 [8]: 7.9 nM
B4 |  |  |  |  |  |  | cGMP production: EC50 [9]: 5.8 nM
B5 | no binding (tested: 20 µg/mL (highest concentration)) | 8.65 | 1.31 | 0.86 | 1.11 | 1.02 | cGMP production: EC50 [10]: 36 nM
B6 |  |  |  |  |  |  | cGMP production: EC50 [9]: 4.6 nM
B7 |  |  |  |  |  |  | cGMP production: EC50 [10]: 40.9 nM
B8 | no binding (tested: 20 µg/mL (highest concentration)) | 0.02 | 0.85 | 0.67 | 0.63 | 0.76 | cGMP production: EC50 [11]: 171 nM; cGMP production: Emax [11]: 0.43; cGMP production: Emin [11]: 0.179
B9 | no binding (tested: 20 µg/mL (highest concentration)) | 1.32 | 1.14 | 0.58 | 0.53 | 0.73 | cGMP production: EC50 [12]: 45.9 nM; cGMP production: Emax [12]: 0.65; cGMP production: Emin [12]: 0.17

Reference: patent EP4725963A1 (Jiangsu Hengrui Pharmaceuticals Co., Ltd., dated 2026)
